These are literature values, as cited in publication PMC5911825.

This series has as its target Cys797 (UniProt position 797, LMPFGCLLDYV). Briefly: other (described only as 'titration experiments'). The conditions noted are these: wild-type EGFR; ligand state not stated.

As usually defined, the pKa is the negative logarithm of the acid dissociation constant. For “Epidermal growth factor receptor (EGFR), wild type (Homo sapiens)”, the pKa is listed as 5.5.
